Measurements: US20240238374A1, “METHODS AND COMPOSITIONS FOR INDUCING BROWN ADIPOGENESIS” (ENERGESIS PHARMACEUTICALS, INC., priority 2021, published 2024)

Test system: Diet-Induced Obese (DIO) mouse
Experiment: Diet-Induced Obese (DIO) mouse study: hFGF7 alone and with semaglutide, 28 days of dosing
Format: in vivo, C57Bl/6 mice
Details: DIO mice
Method: Obesity and insulin resistance, an early stage in the development of type 2 diabetes (also known as pre-diabetes), was induced in C57Bl/6 mice by feeding the mice with a high fat diet (Research Diets, Cat #D12492, 60% fat kcal) for 12 weeks starting at 6 weeks of age, and throughout the period of compound dosing. The mice were housed at 22-23° C. and abundant nestlets/bedding material was provided to allow the animals to maintain a microenvironment close to their thermoneutrality of 28-30° C., starting 2 weeks prior to the dosing period and for the full dosing period with a 12 h/12 h light/dark cycle. These environmental conditions are understood by those skilled in the art to reduce the stimulus for maintaining BAT, a thermogenic tissue that is recruited physiologically by cold stimulus, and permit a wider window for observing effects related to BAT recruitment.
Mice were dosed once per day by intraperitoneal injection (100 μl per mouse) with vehicle (9.6 mg/ml mannitol, 4.8 mg/ml sucrose, 0.37 mg/ml L-histidine, 0.025 mg/ml polysorbate 20 (Tween 20, CAS #9005-64-5), […], also referred to as EGS0501 in corresponding figures) dissolved in the vehicle for 28 days. In addition, some mice also received semaglutide (0.012 mg/kg=3 nmol/kg) every 3 days by intraperitoneal injection (100 μl per mouse) dissolved in the vehicle.
Body weight was recorded every day and body composition (fat and lean mass with EchoMRI) was assessed at the end of the study (University of Cincinnati Mouse Metabolic Phenotyping Center). At the end of the dosing period, animals were fasted for 6 hours and euthanized by CO2, blood was collected, and plasma was isolated and frozen at −20° C. Plasma glucose, insulin and leptin levels were assessed at baseline and at the end of the dosing period (mice were fasted for 6 hours before all plasma collection) (University of Cincinnati Mouse Metabolic Phenotyping Center). Insulin sensitivity was determined by HOMA-IR.
Data from in vivo mouse studies are presented as means±SEM. Significance values were evaluated based on the unpaired two-tailed t-test versus vehicle using GraphPad Prism version 7 or 8 (GraphPad Software, San Diego, CA). To assess synergistic effects of A and B, the combination A+B was compared to the sum of A alone and B alone. To quantify synergistic effects, we used percent changes from baseline when baseline data were available and used the difference from vehicle for parameters without baseline data.

B1: hFGF7: recombinant human Fibroblast Growth Factor-7, also referred to as EGS0501; SEQ ID NO: 8 is the sequence for human FGF7 (protein, listed as Homo sapiens)
chain: MHKWILTWILPTLLYRSCFHIICLVGTISLACNDMTPEQMATNVNCSSPERHTRSYDYMEGGDIRVRRLFCRTQWYLRIDKRGKVKGTQEMKNNYNIMEIRTVAVGIVAIKGVESEFYLAMNKEGKLYAKKECNEDCNFKELILENHYNTYASAKWTHNGGEMFVALNQKGIPVRGKKTKKEQKTAHFLPMAIT
modifications: (1)..(194) Fibroblast Growth Factor-7
plasma glucose compared to vehicle (hFGF7 0.5 mg/kg ip once a day): significant effect | body weight compared to vehicle (hFGF7 1 mg/kg ip once a day): significant decreases | epididymal white adipose (WATepi) depot weight compared to vehicle (hFGF7 1 mg/kg ip once a day): significant decreases | insulin resistance index (HOMA-IR) compared to vehicle (hFGF7 1 mg/kg ip once a day): significant decreases | plasma glucose compared to vehicle (hFGF7 1 mg/kg ip once a day): significant decreases | plasma insulin compared to vehicle (hFGF7 1 mg/kg ip once a day): significant decreases | plasma leptin compared to vehicle (hFGF7 1 mg/kg ip once a day): significant decreases
